B1: KIF1A-3xmCit (natural protein, rat, UniProt F1M4A4 1-1707, looked up)
chain: MAGASVKVAVRVRPFNSREMSRDSKCIIQMSGSTTTIVNPKQPKETPKSFSFDYSYWSHTSPEDINYASQKQVYRDIGEEMLQHAFEGYNVCIFAYGQTGAGKSYTMMGKQEKDQQGIIPQLCEDLFSRINDTTNDNMSYSVEVSYMEIYCERVRDLLNPKNKGNLRVREHPLLGPYVEDLSKLAVTSYNDIQDLMDSGNKARTVAATNMNETSSRSHAVFNIIFTQKRHDAETNITTEKVSKISLVDLAGSERADSTGAKGTRLKEGANINKSLTTLGKVISALAEMDSGPNKNKKKKKTDFIPYRDSVLTWLLRENLGGNSRTAMVAALSPADINYDETLSTLRYADRAKQIRCNAIINEDPNNKLIRELKDEVTRLRDLLYAQGLGDITDTNTVPGGPKLTNALVGMSPSSSLSALSSRAASVSSLHERILFAPGSEEAIERLKETEKIIAELNETWEEKLRRTEAIRMEREALLAEMGVAMREDGGTLGVFSPKKTPHLVNLNEDPLMSECLLYYIKDGVTRVGREDAERRQDIVLSGHFIKEEHCIFRSDSRGGGEAVVTLEPCEGADTYVNGKKVTEPSILRSGNRIIMGKSHVFRFNHPEQARQERERTPCAETPAEPVDWAFAQRELLEKQGIDMKQEMEQRLQELEDQYRREREEATYLLEQQRLDYESKLEALQKQMDSRYYPEVNEEEEEPEDEVQWTERECELALWAFRKWKWYQFTSLRDLLWGNAIFLKEANAISVELKKKVQFQFVLLTDTLYSPLPPDLLPPEAAKDRETRPFPRTIVAVEVQDQKNGATHYWTLEKLRQRLDLMREMYDRAAEVPSSVVEDCDNVVTGGDPFYDRFPWFRLVGRAFVYLSNLLYPVPLVHRVAIVSEKGEVKGFLRVAVQAISADEEAPDYGSGVRQSGTAKISFDDQHFEKFQSESCPVVGMSRSGTSQEELRIVEGQGQGADAGPSADEVNNNTCSAVPPEGLLDSPEKAALDGPLDTALDHLRLGSTFTFRVTVLQASSISAEYADIFCQFNFIHRHDEAFSTEPLKNTGRGPPLGFYHVQNIAVEVTKSFIEYIKSQPIVFEVFGHYQQHPFPPLCKDVLSPLRPSRRHFPRVMPLSKPVPATKLSTMTRPSPGPCHCKYDLLVYFEICELEANGDYIPAVVDHRGGMPCMGTFLLHQGIQRRITVTLLHETGSHIRWKEVRELVVGRIRNTPETDEALIDPNILSLNILSSGYVHPAQDDRQFLDSDIPRTFYQFEAAWDSSMHNSLLLNRVTPYREKIYMTLSAYIEMENCTQPAVITKDFCMVFYSRDAKLPASRSIRNLFGSGSLRATEGNRVTGVYELSLCHVADAGSPGMQRRRRRVLDTSVAYVRGEENLAGWRPRSDSLILDHQWELEKLSLLQEVEKTRHYLLLREKLETTQRPVPEVLSPASSEDSESRSSSGASSPLSAEGQPSPLEVPNERQRELAVKCLRLLMHTFNREYTHSHVCISASESKLSEMSVTLMRDPSMSPLGAATLTPSSTCPSLIEGRYGATDVRTPQPCSRPASPEPELLPELDSKKTPSPVRATETEKEPQRLLVPDIQEIRVSPIVSKKGYLHFLEPHTAGWAKRFVVVRRPYAYMYNSDKDTVERFVLNLSTAQVEYSEDQQAMLKTPNTFAVCTEHRGILLQANSDKDMHDWLYAFNPLLAGTIRSKLSRRRSAQMRV
notes: KIF1A (Kinesin-3 motor), rat, full length; Vector 3xmCit-N1; also called FL; 3xmCit-tagged FL KIF1A; source: COS cells, transfected, in lysate
B2: Myc-KIF1A (natural protein, rat, UniProt F1M4A4 1-1707, looked up)
chain: MAGASVKVAVRVRPFNSREMSRDSKCIIQMSGSTTTIVNPKQPKETPKSFSFDYSYWSHTSPEDINYASQKQVYRDIGEEMLQHAFEGYNVCIFAYGQTGAGKSYTMMGKQEKDQQGIIPQLCEDLFSRINDTTNDNMSYSVEVSYMEIYCERVRDLLNPKNKGNLRVREHPLLGPYVEDLSKLAVTSYNDIQDLMDSGNKARTVAATNMNETSSRSHAVFNIIFTQKRHDAETNITTEKVSKISLVDLAGSERADSTGAKGTRLKEGANINKSLTTLGKVISALAEMDSGPNKNKKKKKTDFIPYRDSVLTWLLRENLGGNSRTAMVAALSPADINYDETLSTLRYADRAKQIRCNAIINEDPNNKLIRELKDEVTRLRDLLYAQGLGDITDTNTVPGGPKLTNALVGMSPSSSLSALSSRAASVSSLHERILFAPGSEEAIERLKETEKIIAELNETWEEKLRRTEAIRMEREALLAEMGVAMREDGGTLGVFSPKKTPHLVNLNEDPLMSECLLYYIKDGVTRVGREDAERRQDIVLSGHFIKEEHCIFRSDSRGGGEAVVTLEPCEGADTYVNGKKVTEPSILRSGNRIIMGKSHVFRFNHPEQARQERERTPCAETPAEPVDWAFAQRELLEKQGIDMKQEMEQRLQELEDQYRREREEATYLLEQQRLDYESKLEALQKQMDSRYYPEVNEEEEEPEDEVQWTERECELALWAFRKWKWYQFTSLRDLLWGNAIFLKEANAISVELKKKVQFQFVLLTDTLYSPLPPDLLPPEAAKDRETRPFPRTIVAVEVQDQKNGATHYWTLEKLRQRLDLMREMYDRAAEVPSSVVEDCDNVVTGGDPFYDRFPWFRLVGRAFVYLSNLLYPVPLVHRVAIVSEKGEVKGFLRVAVQAISADEEAPDYGSGVRQSGTAKISFDDQHFEKFQSESCPVVGMSRSGTSQEELRIVEGQGQGADAGPSADEVNNNTCSAVPPEGLLDSPEKAALDGPLDTALDHLRLGSTFTFRVTVLQASSISAEYADIFCQFNFIHRHDEAFSTEPLKNTGRGPPLGFYHVQNIAVEVTKSFIEYIKSQPIVFEVFGHYQQHPFPPLCKDVLSPLRPSRRHFPRVMPLSKPVPATKLSTMTRPSPGPCHCKYDLLVYFEICELEANGDYIPAVVDHRGGMPCMGTFLLHQGIQRRITVTLLHETGSHIRWKEVRELVVGRIRNTPETDEALIDPNILSLNILSSGYVHPAQDDRQFLDSDIPRTFYQFEAAWDSSMHNSLLLNRVTPYREKIYMTLSAYIEMENCTQPAVITKDFCMVFYSRDAKLPASRSIRNLFGSGSLRATEGNRVTGVYELSLCHVADAGSPGMQRRRRRVLDTSVAYVRGEENLAGWRPRSDSLILDHQWELEKLSLLQEVEKTRHYLLLREKLETTQRPVPEVLSPASSEDSESRSSSGASSPLSAEGQPSPLEVPNERQRELAVKCLRLLMHTFNREYTHSHVCISASESKLSEMSVTLMRDPSMSPLGAATLTPSSTCPSLIEGRYGATDVRTPQPCSRPASPEPELLPELDSKKTPSPVRATETEKEPQRLLVPDIQEIRVSPIVSKKGYLHFLEPHTAGWAKRFVVVRRPYAYMYNSDKDTVERFVLNLSTAQVEYSEDQQAMLKTPNTFAVCTEHRGILLQANSDKDMHDWLYAFNPLLAGTIRSKLSRRRSAQMRV
notes: KIF1A (Kinesin-3 motor), rat, full length; Cloned into pRK5-Myc; also called Myc-tagged KIF1A; FL KIF1A; source: COS cells, transfected, in lysate
B3: mCit-KIF1A (natural protein, rat, UniProt F1M4A4 1-1707, looked up)
chain: MAGASVKVAVRVRPFNSREMSRDSKCIIQMSGSTTTIVNPKQPKETPKSFSFDYSYWSHTSPEDINYASQKQVYRDIGEEMLQHAFEGYNVCIFAYGQTGAGKSYTMMGKQEKDQQGIIPQLCEDLFSRINDTTNDNMSYSVEVSYMEIYCERVRDLLNPKNKGNLRVREHPLLGPYVEDLSKLAVTSYNDIQDLMDSGNKARTVAATNMNETSSRSHAVFNIIFTQKRHDAETNITTEKVSKISLVDLAGSERADSTGAKGTRLKEGANINKSLTTLGKVISALAEMDSGPNKNKKKKKTDFIPYRDSVLTWLLRENLGGNSRTAMVAALSPADINYDETLSTLRYADRAKQIRCNAIINEDPNNKLIRELKDEVTRLRDLLYAQGLGDITDTNTVPGGPKLTNALVGMSPSSSLSALSSRAASVSSLHERILFAPGSEEAIERLKETEKIIAELNETWEEKLRRTEAIRMEREALLAEMGVAMREDGGTLGVFSPKKTPHLVNLNEDPLMSECLLYYIKDGVTRVGREDAERRQDIVLSGHFIKEEHCIFRSDSRGGGEAVVTLEPCEGADTYVNGKKVTEPSILRSGNRIIMGKSHVFRFNHPEQARQERERTPCAETPAEPVDWAFAQRELLEKQGIDMKQEMEQRLQELEDQYRREREEATYLLEQQRLDYESKLEALQKQMDSRYYPEVNEEEEEPEDEVQWTERECELALWAFRKWKWYQFTSLRDLLWGNAIFLKEANAISVELKKKVQFQFVLLTDTLYSPLPPDLLPPEAAKDRETRPFPRTIVAVEVQDQKNGATHYWTLEKLRQRLDLMREMYDRAAEVPSSVVEDCDNVVTGGDPFYDRFPWFRLVGRAFVYLSNLLYPVPLVHRVAIVSEKGEVKGFLRVAVQAISADEEAPDYGSGVRQSGTAKISFDDQHFEKFQSESCPVVGMSRSGTSQEELRIVEGQGQGADAGPSADEVNNNTCSAVPPEGLLDSPEKAALDGPLDTALDHLRLGSTFTFRVTVLQASSISAEYADIFCQFNFIHRHDEAFSTEPLKNTGRGPPLGFYHVQNIAVEVTKSFIEYIKSQPIVFEVFGHYQQHPFPPLCKDVLSPLRPSRRHFPRVMPLSKPVPATKLSTMTRPSPGPCHCKYDLLVYFEICELEANGDYIPAVVDHRGGMPCMGTFLLHQGIQRRITVTLLHETGSHIRWKEVRELVVGRIRNTPETDEALIDPNILSLNILSSGYVHPAQDDRQFLDSDIPRTFYQFEAAWDSSMHNSLLLNRVTPYREKIYMTLSAYIEMENCTQPAVITKDFCMVFYSRDAKLPASRSIRNLFGSGSLRATEGNRVTGVYELSLCHVADAGSPGMQRRRRRVLDTSVAYVRGEENLAGWRPRSDSLILDHQWELEKLSLLQEVEKTRHYLLLREKLETTQRPVPEVLSPASSEDSESRSSSGASSPLSAEGQPSPLEVPNERQRELAVKCLRLLMHTFNREYTHSHVCISASESKLSEMSVTLMRDPSMSPLGAATLTPSSTCPSLIEGRYGATDVRTPQPCSRPASPEPELLPELDSKKTPSPVRATETEKEPQRLLVPDIQEIRVSPIVSKKGYLHFLEPHTAGWAKRFVVVRRPYAYMYNSDKDTVERFVLNLSTAQVEYSEDQQAMLKTPNTFAVCTEHRGILLQANSDKDMHDWLYAFNPLLAGTIRSKLSRRRSAQMRV
notes: KIF1A (Kinesin-3 motor), rat, full length; also called mCit-tagged KIF1A; FL KIF1A; source: COS cells, transfected; in lysate and in live cells; not shown: mCit (monomeric citrine), N-terminal, kept
B4: KIF1A(1–726)-mCit (domain or fragment, rat, UniProt F1M4A4 1-726, looked up)
chain: MAGASVKVAVRVRPFNSREMSRDSKCIIQMSGSTTTIVNPKQPKETPKSFSFDYSYWSHTSPEDINYASQKQVYRDIGEEMLQHAFEGYNVCIFAYGQTGAGKSYTMMGKQEKDQQGIIPQLCEDLFSRINDTTNDNMSYSVEVSYMEIYCERVRDLLNPKNKGNLRVREHPLLGPYVEDLSKLAVTSYNDIQDLMDSGNKARTVAATNMNETSSRSHAVFNIIFTQKRHDAETNITTEKVSKISLVDLAGSERADSTGAKGTRLKEGANINKSLTTLGKVISALAEMDSGPNKNKKKKKTDFIPYRDSVLTWLLRENLGGNSRTAMVAALSPADINYDETLSTLRYADRAKQIRCNAIINEDPNNKLIRELKDEVTRLRDLLYAQGLGDITDTNTVPGGPKLTNALVGMSPSSSLSALSSRAASVSSLHERILFAPGSEEAIERLKETEKIIAELNETWEEKLRRTEAIRMEREALLAEMGVAMREDGGTLGVFSPKKTPHLVNLNEDPLMSECLLYYIKDGVTRVGREDAERRQDIVLSGHFIKEEHCIFRSDSRGGGEAVVTLEPCEGADTYVNGKKVTEPSILRSGNRIIMGKSHVFRFNHPEQARQERERTPCAETPAEPVDWAFAQRELLEKQGIDMKQEMEQRLQELEDQYRREREEATYLLEQQRLDYESKLEALQKQMDSRYYPEVNEEEEEPEDEVQWTERECELALWAFRKWKWY
notes: source: COS cells, transfected, in lysate; not shown: mCit (monomeric citrine), C-terminal, kept
B5: KIF1A(1–393)-mCit (domain or fragment, rat, UniProt F1M4A4 1-393, looked up)
chain: MAGASVKVAVRVRPFNSREMSRDSKCIIQMSGSTTTIVNPKQPKETPKSFSFDYSYWSHTSPEDINYASQKQVYRDIGEEMLQHAFEGYNVCIFAYGQTGAGKSYTMMGKQEKDQQGIIPQLCEDLFSRINDTTNDNMSYSVEVSYMEIYCERVRDLLNPKNKGNLRVREHPLLGPYVEDLSKLAVTSYNDIQDLMDSGNKARTVAATNMNETSSRSHAVFNIIFTQKRHDAETNITTEKVSKISLVDLAGSERADSTGAKGTRLKEGANINKSLTTLGKVISALAEMDSGPNKNKKKKKTDFIPYRDSVLTWLLRENLGGNSRTAMVAALSPADINYDETLSTLRYADRAKQIRCNAIINEDPNNKLIRELKDEVTRLRDLLYAQGLGDITD
notes: full NC and several residues of the hinge; Plasmid was a gift from Gary Banker; source: COS cells, transfected, in lysate; not shown: mCit (monomeric citrine), C-terminal, kept

Legend:
[1] = target: the molecule itself; experiment: stepwise photobleaching of single molecules (TIRF microscopy); lysates of COS cells expressing 3xmCit-tagged constructs, in flow chambers with Cy5-microtubules, with AMPPNP; number of bleaching steps of 160–200 spots for each construct
[2] = target: the molecule itself; experiment: cross-linking; lysates of transfected COS cells in borate buffer (50 mM NaBorate, 100 mM potassium acetate, 2 mM MgCl2, 1 mM EGTA, 1% Triton X-100, pH 8.57), 20 mM DMP for 30 min or untreated; SDS-PAGE, immunoblot

Protein	stoichiometry N [1]	stoichiometry N [2]
B1	2	
B2		~2
B3		~2
B4		2
B5		2
